{"source": "patent US20230203162A1", "about": "(NUMAB THERAPEUTICS, published 2023)", "binders": {"B1": {"name": "PRO2000 (MATCH4, biMSLNhigh KD×CD3×hSA) (other)", "chain 1": "DIQMTQSPSSLSASVGDRVTITCQASQNIYSNLAWYQQKPGKAPKLLIYDASDLASGVPSRFSGSGSGTDFTLTISSLQPEDFATYYCQQVRSSSDIDNPFGTGTKVTVLGGGGGSGGGGSGGGGSGGGGSQVQLVESGGGLVQPGGSLRLSCAASGFSLSSYAMGWVRQAPGKGLEWIGYISTINNTYYASWAKGRFTISRDNSKNTVYLQMNSLRAEDTAVYYCAREIRSGWVDYGFSIWGQGTLVTVSSGGGGSGGGGSEVQLVESGGGLVQPGGSLRLSCAASGFSLSSYDMSWVRQAPGKGLAWIGASYASGPTYYASWAKGRFTISRDNSKNTVYLQMNSLRAEDTATYFCARGGWTGTSHSNIWGQGTLVTVSSGGGSGGGSEVQLVESGGGLVQPGGSLRLSCAASGFSFSSSYWICWVRQAPGKCLEWVGCVFTGDGTTYYASWAKGRFTISRDNSKNTVYLQMNSLRAEDTATYFCARPVSVYYYGMDLWGQGTLVTVSS", "chain 2": "DIQMTQSPSSLSASVGDRVTITCQASQNIYSNLAWYQQKPGKAPKLLIYDASDLASGVPSRFSGSGSGTDFTLTISSLQPEDFATYYCQQVRSSSDIDNPFGTGTKVTVLGGGGGSGGGGSGGGGSGGGGSQVQLVESGGGLVQPGGSLRLSCAASGFSLSSYAMGWVRQAPGKGLEWIGYISTINNTYYASWAKGRFTISRDNSKNTVYLQMNSLRAEDTAVYYCAREIRSGWVDYGFSIWGQGTLVTVSSGGGGSGGGGSDVVMTQSPSSLSASVGDRVTITCQASQIISSRSAWYQQKPGQPPKLLIYQASKLASGVPSRFSGSGSGTDFTLTISSLQPEDFATYYCQCTYIDSNFGAFGCGTKLTVLGGGSGGSDIQMTQSPSSLSASVGDRVTITCQSSQSVFSNNYLAWFQQKPGQSPKRLIYSASTLASGVPSRFSGSGSGTDFTLTISSLQPEDFATYYCLGSYACSSADCYVFGTGTKVTVLG", "notes": "Heterodimer; also called biMSLN.CD3"}, "B2": {"name": "anti-hSA scFv PRO2155 (domain 19-04-A10-sc02) (scFv, V domains shown)", "VH": "EVQLVESGGGLVQPGGSLRLSCAASGFSLSSYAMNWVRQAPGKGLEWIGHINAGDIAYYATWAKGRFTISRDNSKNTVYLQMNSLRAEDTAVYFCARGAGGFSTGPFKLWGQGTLVTVSS", "VL": "AFELTQSPSSLSASVGDRVTITCQASESINSRLAWYQQKPGQPPKLLIYDASDLTSGVPSRFSGSGSGTDFTLTISSLQPEDFATYYCQGYGGSSTTTFGGGTKLTVLG", "notes": "Tested as scFv"}}, "key": {"[1]": {"molecular_target": "T1, plasma-membranous human MSLN on cell lines (H226, HPAC, H292, OVCAR-3, MeT-5A) (human, UniProt Q13421 296-598)", "experiment": "cell-based or functional assay"}, "[2]": {"molecular_target": "soluble mesothelin (sMSLN)", "experiment": "cell-based or functional assay"}, "[3]": {"molecular_target": "T1, plasma-membranous human MSLN on cell …", "experiment": "flow cytometry on HPAC cells, protein L-PE, 4PL fit"}, "[4]": {"molecular_target": "T1, plasma-membranous human MSLN on cell …", "experiment": "cell-based or functional assay", "remark": "listed apart in the source"}, "[5]": {"molecular_target": "T1, plasma-membranous human MSLN on cell …", "experiment": "cell-based or functional assay", "remark": "listed apart in the source"}, "[6]": {"molecular_target": "T2, human recombinant CD3ε protein (Sino Biological) (human, UniProt P07766 23-126)", "T2 construct": "Bought protein; also called recombinant human CD3ε; human CD3ε", "experiment": "SPR, CD3ε amine-coupled to CM5, antibody injected; footnote: kd1 of a two-state fitting model"}, "[7]": {"molecular_target": "T1, plasma-membranous human MSLN on cell …", "experiment": "cell-based or functional assay", "remark": "listed apart in the source"}, "[8]": {"molecular_target": "T1, plasma-membranous human MSLN on cell …", "experiment": "flow cytometry on H292 cells, protein L-PE, 4PL fit"}, "[9]": {"molecular_target": "T1, plasma-membranous human MSLN on cell …", "experiment": "flow cytometry on H292 cells"}, "[10]": {"molecular_target": "T1, plasma-membranous human MSLN on cell …", "experiment": "cell-based or functional assay", "remark": "listed apart in the source"}, "[11]": {"molecular_target": "T2, human recombinant CD3ε protein (Sino …)", "experiment": "SPR, CD3ε amine-coupled to CM5, antibody injected; footnote: ka1 of a two-state fitting model"}, "[12]": {"molecular_target": "T1, plasma-membranous human MSLN on cell …", "experiment": "cell-based or functional assay", "remark": "listed apart in the source"}, "[13]": {"molecular_target": "T2, human recombinant CD3ε protein (Sino …)", "experiment": "SPR, CD3ε amine-coupled to CM5, antibody injected"}, "[14]": {"molecular_target": "T1, plasma-membranous human MSLN on cell …", "experiment": "flow cytometry on HPAC cells"}, "[15]": {"molecular_target": "T1, plasma-membranous human MSLN on cell …", "experiment": "flow cytometry on Met-5A cells, protein L-PE, 4PL fit"}, "[16]": {"molecular_target": "T1, plasma-membranous human MSLN on cell …", "experiment": "flow cytometry on H226 cells"}, "[17]": {"molecular_target": "T3, recombinant human MSLN (purchased from Peprotech) (human, UniProt Q13421 296-598, limits assumed)", "T3 construct": "Bought protein; also called recombinant human mesothelin", "experiment": "SPR (Biacore T200), human MSLN; which of the two formats (MSLN immobilized / antibody captured) not given"}, "[18]": {"molecular_target": "T1, plasma-membranous human MSLN on cell …", "experiment": "flow cytometry on H226 cells, protein L-PE, 4PL fit"}, "[19]": {"molecular_target": "T4, mouse serum albumin (mSA, Sigma-Aldrich A3559) (mouse, UniProt P07724 25-608)", "experiment": "SPR, albumin immobilized on CM5, scFv as analyte, 1:1 fit, pH 5.5; biphasic binding corrected with bulk correction"}, "[20]": {"molecular_target": "T4, mouse serum albumin (mSA, Sigma-Aldrich …)", "experiment": "SPR, albumin immobilized on CM5, scFv as analyte, multi-cycle, 1:1 Langmuir, pH 7.4"}, "[21]": {"molecular_target": "T5, human serum albumin (hSA, Sigma-Aldrich A3782) (human, UniProt P02768 25-609)", "experiment": "SPR, albumin immobilized on CM5, scFv as analyte, multi-cycle, 1:1 Langmuir, pH 7.4"}, "[22]": {"molecular_target": "T6, cynomolgus monkey serum albumin (cSA, Molecular Innovations CYSA) (cynomolgus monkey)", "experiment": "SPR, albumin immobilized on CM5, scFv as analyte, multi-cycle, 1:1 Langmuir, pH 7.4"}, "[23]": {"molecular_target": "T4, mouse serum albumin (mSA, Sigma-Aldrich …)", "experiment": "SPR, albumin immobilized on CM5, scFv as analyte, 1:1 fit, pH 7.4; biphasic binding corrected with bulk correction"}, "[24]": {"molecular_target": "T4, mouse serum albumin (mSA, Sigma-Aldrich …)", "experiment": "SPR, albumin immobilized on CM5, scFv as analyte, multi-cycle, 1:1 Langmuir, pH 5.5"}, "[25]": {"molecular_target": "T5, human serum albumin (hSA, Sigma-Aldrich …)", "experiment": "SPR, albumin immobilized on CM5, scFv as analyte, multi-cycle, 1:1 Langmuir, pH 5.5"}, "[26]": {"molecular_target": "T6, cynomolgus monkey serum albumin (cSA, …)", "experiment": "SPR, albumin immobilized on CM5, scFv as analyte, multi-cycle, 1:1 Langmuir, pH 5.5"}}}
{"binder": "B1", "values": [{"measurement": "fold CD8+ T cell activation potency against PRO1872, HPAC cells", "setting": "[1]", "result": 4, "unit": "fold"}, {"measurement": "fold killing potency against PRO1872, H226 cells", "setting": "[1]", "result": 75, "unit": "fold"}, {"measurement": "fold reduction of H226 killing potency with 500 ng/ml sMSLN", "setting": "[2]", "result": 17, "unit": "fold"}, {"measurement": "shift of H226 killing potency with 100 ng/ml sMSLN", "setting": "[2]", "result": 5, "unit": "fold"}, {"measurement": "EC50", "setting": "[3]", "result": 1480, "unit": "pM"}, {"measurement": "max. binding (MFI)", "setting": "[3]", "result": 17500, "unit": "MFI"}, {"measurement": "EC50 CD8+ T cell activation, H292 cells", "setting": "[4]", "result": 114, "unit": "pM"}, {"measurement": "EC50 CD8+ T cell activation, HPAC cells", "setting": "[4]", "result": 12.2, "unit": "pM"}, {"measurement": "EC50 target cell killing, H292 cells", "setting": "[4]", "result": 652, "unit": "pM"}, {"measurement": "EC50 target cell killing, HPAC cells", "setting": "[4]", "result": 40.8, "unit": "pM"}, {"measurement": "EC50 H226 target cell killing, 50 ng/ml soluble mesothelin", "setting": "[5]", "result": 31.2, "unit": "pM"}, {"measurement": "EC50 H226 target cell killing, 500 ng/ml soluble mesothelin", "setting": "[5]", "result": 165, "unit": "pM"}, {"measurement": "EC50 H226 target cell killing, no mesothelin", "setting": "[5]", "result": 9.73, "unit": "pM"}, {"measurement": "koff", "setting": "[6]", "result": 0.00391, "unit": "s⁻¹"}, {"measurement": "EC50 CD8+ T cell activation with H226 cells, 50 ng/ml MSLN", "setting": "[7]", "result": 7.85, "unit": "pM"}, {"measurement": "EC50 CD8+ T cell activation with H226 cells, 500 ng/ml MSLN", "setting": "[7]", "result": 42.4, "unit": "pM"}, {"measurement": "EC50 CD8+ T cell activation with H226 cells, no MSLN", "setting": "[7]", "result": 1.99, "unit": "pM"}, {"measurement": "EC50", "setting": "[8]", "result": 1030, "unit": "pM"}, {"measurement": "max. binding (MFI)", "setting": "[8]", "result": 6960, "unit": "MFI"}, {"measurement": "fold lower binding against PRO1872", "setting": "[9]", "result": 2, "unit": "fold"}, {"measurement": "EC50 CD8+ T cell activation, Met-5A cells", "setting": "[10]", "result": 544, "unit": "pM"}, {"measurement": "EC50 target cell killing, H226 cells (flow cytometry cytotoxicity assay with PBMCs)", "setting": "[10]", "result": 0.07, "unit": "pM"}, {"measurement": "EC50 target cell killing, Met-5A cells", "setting": "[10]", "result": 145, "unit": "pM"}, {"measurement": "kon", "setting": "[11]", "result": 117000, "unit": "M⁻¹ s⁻¹"}, {"measurement": "EC50 target cell killing, H226 cells, 100 ng/ml sMSLN", "setting": "[12]", "result": 3.45, "unit": "pM"}, {"measurement": "EC50 target cell killing, H226 cells, no sMSLN", "setting": "[12]", "result": 0.7, "unit": "pM"}, {"measurement": "max. killing, H226 cells, 100 ng/ml sMSLN", "setting": "[12]", "result": 58.5, "unit": "%"}, {"measurement": "max. killing, H226 cells, no sMSLN", "setting": "[12]", "result": 49.4, "unit": "%"}, {"measurement": "Kd", "setting": "[13]", "result": 20000, "unit": "pM"}, {"measurement": "fold binding against PRO1872", "setting": "[14]", "result": "1.5 to 2", "unit": "fold"}, {"measurement": "EC50", "setting": "[15]", "result": 128, "unit": "pM"}, {"measurement": "max. binding (MFI)", "setting": "[15]", "result": 7950, "unit": "MFI"}, {"measurement": "fold binding against PRO1872", "setting": "[16]", "result": 3, "unit": "fold"}, {"measurement": "Kd", "setting": "[17]", "result": 1060, "unit": "pM"}, {"measurement": "koff", "setting": "[17]", "result": 0.000421, "unit": "s⁻¹"}, {"measurement": "kon", "setting": "[17]", "result": 398000, "unit": "M⁻¹ s⁻¹"}, {"measurement": "EC50", "setting": "[18]", "result": 659, "unit": "pM"}, {"measurement": "max. binding (MFI)", "setting": "[18]", "result": 362000, "unit": "MFI"}]}
{"binder": "B2", "values": [{"measurement": "Kd", "setting": "[19]", "result": 2500, "unit": "pM"}, {"measurement": "koff", "setting": "[20]", "result": 0.00029, "unit": "s⁻¹"}, {"measurement": "kon", "setting": "[20]", "result": 32000, "unit": "M⁻¹ s⁻¹"}, {"measurement": "Kd", "setting": "[21]", "result": 2200, "unit": "pM"}, {"measurement": "koff", "setting": "[21]", "result": 0.0012, "unit": "s⁻¹"}, {"measurement": "kon", "setting": "[21]", "result": 550000, "unit": "M⁻¹ s⁻¹"}, {"measurement": "Kd", "setting": "[22]", "result": 1600, "unit": "pM"}, {"measurement": "koff", "setting": "[22]", "result": 0.00091, "unit": "s⁻¹"}, {"measurement": "kon", "setting": "[22]", "result": 580000, "unit": "M⁻¹ s⁻¹"}, {"measurement": "Kd", "setting": "[23]", "result": 9000, "unit": "pM"}, {"measurement": "koff", "setting": "[24]", "result": 0.0002, "unit": "s⁻¹"}, {"measurement": "kon", "setting": "[24]", "result": 78000, "unit": "M⁻¹ s⁻¹"}, {"measurement": "Kd", "setting": "[25]", "result": 3300, "unit": "pM"}, {"measurement": "koff", "setting": "[25]", "result": 0.003, "unit": "s⁻¹"}, {"measurement": "kon", "setting": "[25]", "result": 900000, "unit": "M⁻¹ s⁻¹"}, {"measurement": "Kd", "setting": "[26]", "result": 2300, "unit": "pM"}, {"measurement": "koff", "setting": "[26]", "result": 0.0021, "unit": "s⁻¹"}, {"measurement": "kon", "setting": "[26]", "result": 910000, "unit": "M⁻¹ s⁻¹"}]}
